Data on four substances can be found in patent US20210317227A1.

Test in all cases: cell-based or functional assay
Test [1] addresses FcγRIIa on M2c macrophages (secondary ADCP assay) (UniProt P12318).
The target in test [2] is FcγRIIIa on NK cells (secondary ADCC assays) (UniProt P08637).
For test [3], the target named is human FcγRIIa-H variant on Jurkat effector cells (human) (UniProt P12318).
Test [4] concerns the target FcγRIIIa on Jurkat effector cells (UniProt P08637).

Substance “afucosylated anti-CD20 IgG1 monoclonal antibody (obinutuzumab)” showed an EC50 (nM) Mean in test [1] of 0.37 nM.
In test [2], “afucosylated anti-PD-L1 IgG1 monoclonal antibody (avelumab)” came in with an EC50 (nM) Mean of 0.0054 nM.
Consider “fucosylated anti-CD20 IgG1 monoclonal antibody (obinutuzumab)”, for which the EC50 (nM) Mean in test [3] came to 7.1 nM; in test [2], 0.033 nM; in test [1], 0.82 nM; in test [4], 7.1 nM.
On to “fucosylated anti-PD-L1 IgG1 monoclonal antibody (avelumab)”, for which the EC50 (nM) Mean in test [4] came out at 0.049 nM.
